Measurements reported in the RNAGym collection of RNA variant scans (doi:10.1073/pnas.2313332121).

B1: TPR t1 (parent)
chain: GACCAAUCUGCCCUCAGAGCUCGAGAACAUCUUCGGAUGCAGAGGAGGCAGGCUUCGGUGGCGCGAUAGCGCCAACGUCCUCAACCUCCAAUGCAUCCCACCACAUGAUGAUGCCUGAAGAGCCUUGGUUUUUUG

Variants of: B1
Assay: polymerase ribozyme fitness, log enrichment relative to wild type (log ratio); higher = more active; in vitro selection for triplet polymerase activity
Method in brief: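 Input and output libraries were sequenced on Illumina after a single in vitro selection round, run in triplicate on PCR-built, transcribed mutant libraries of each subunit of a heterodimeric triplet polymerase ribozyme. Selection annealed libraries to a biotinylated primer, the partner subunit and triplets, incubated them frozen at −7 °C, then gel-excised extended constructs for streptavidin-bead capture and RT-PCR. Genotypes with ≥10 input reads and ≥1 read per output were kept. Fitness is the logarithm, taken in base 2, of genotype enrichment divided by wild-type enrichment, using inverse-variance-weighted replicate averages.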

Row | Variant | polymerase ribozyme fitness (log ratio)
1 | GACCAAUCUGCCCUCAGAGCUCGAGAACAUCUUCGGAUGCAGAGGAGGCAGGCUUCGGUGGCGCGAUAGCGCCAACGUCCUCAACCUCUAAUGCAUCCCUCCACAUGAUGAUGCCUGAAGAGCCUUGGUUUUUUG | -1.41
2 | GACCAAUCUGCCCUCAGAGCUCGAGAACAUCUUCGGAUGCAGAGGAGGCAGGCUUCGGUGGCGCGAUAGCGCCAACGUCCUCAACCUCAAAUGCAUCCCACCACAUGAUGAUGCCUGAAGAGCCUUGGGUUUUUG | -2.64
3 | GACCAAUCUGCCCUCAGAGCUCGAGAACAUCUUCGGAUGCAGAGGAGGCAGGCUUCGGUGGCGCGAUAGCGCCAACGUCCUCAACCUCCCAUGCAUCCCACCACAUGAUGAUGCAUGAAGAGCCUUGGUUUUUUG | -0.409
4 | GACCAAUCUGCCCUCAGAGCUCGAGAACAUCUUCGGAUGCAGAGGAGGCAGGCUUCGGUGGCGCGAUAGCGCCAACGUCCUCAACCUCCCAUGUAUCCCACCACAUGAUGAUGCCUGAAGAGCCUUGGUUUUUUG | -1.34
5 | GACCAAUCUGCCCUCAGAGCUCGAGAACAUCUUCGGAUGCAGAGGAGGCAGGCUUCGGUGGCGCGAUAGCGCCAACGUCCUCAACCUCCCAUGCAUCCCACCAUCUGAUGAUGCCUGAAGAGCCUUGGUUUUUUG | -5.64
6 | GACCAAUCUGCCCUCAGAGCUCGAGAACAUCUUCGGAUGCAGAGGAGGCAGGCUUCGGUGGCGCGAUAGCGCCAACGUCCUCAACCUCAAAUGCAUCCCACCACAUGAUGAUGCCUGAAGAGUGUUGGUUUUUUG | 1.14
7 | GACCAAUCUGCCCUCAGAGCUCGAGAACAUCUUCGGAUGCAGAGGAGGCAGGCUUCGGUGGCGCGAUAGCGCCAACGUCCUCAACCUCAAAUACAUCCCACCACAAGAUGAUGCCUGAAGAGCCUUGGUUUUUUG | -3.07
8 | GACCAAUCUGCCCUCAGAGCUCGAGAACAUCUUCGGAUGCAGAGGAGGCAGGCUUCGGUGGCGCGAUAGCGCCAACGUCCUCAACCUCUAAUGCAUCCGCCCACAUGAUGAUGCCUGAAGAGGCUUGGUUUUUUG | -7.05
9 | GACCAAUCUGCCCUCAGAGCUCGAGAACAUCUUCGGAUGCAGAGGAGGCAGGCUUCGGUGGCGCGAUAGCGCCAACGUCCUCAACCUCGAAUUCAUCCCACCACAUGAUGAUGCCUGAAUAGCCUUGGUUUUUUG | -3.31
10 | GACCAAUCUGCCCUCAGAGCUCGAGAACAUCUUCGGAUGCAGAGGAGGCAGGCUUCGGUGGCGCGAUAGCGCCAACGUCCUCAACCUCCGAUGCCUCCCACCACAUGAUGAUGCCUGAAGAGCCUUGGUUUUUUG | -0.759
11 | GACCAAUCUGCCCUCAGAGCUCGAGAACAUCUUCGGAUGCAGAGGAGGCAGGCUUCGGUGGCGCGAUAGCGCCAACGUCCUCAACCUCGAAUGCAUCCCCCCACAUGAUGAUGCCUGAAGAGCCUUGGUUUUUUG | -3.25
12 | GACCAAUCUGCCCUCAGAGCUCGAGAACAUCUUCGGAUGCAGAGGAGGCAGGCUUCGGUGGCGCGAUAGCGCCAACGUCCUCAACCUCAAAUGCAUCCCACCACAUGAUGAUGCCUGAAAAGCCUUGCUUUCUUG | -3.37
13 | GACCAAUCUGCCCUCAGAGCUCGAGAACAUCUUCGGAUGCAGAGGAGGCAGGCUUCGGUGGCGCGAUAGCGCCAACGUCCUCAACCUCGAAUGCAUCCCACCACAUGAUGGUCCCUGAAGAGCCUUGGUUUUUUG | -3.54
14 | GACCAAUCUGCCCUCAGAGCUCGAGAACAUCUUCGGAUGCAGAGGAGGCAGGCUUCGGUGGCGCGAUAGCGCCAACGUCCUCAACCUCAAAUGCAUCCCACCACAUGAUGAUGCCUGAAGUGCCGUGGUUUUUUG | -0.211
15 | GACCAAUCUGCCCUCAGAGCUCGAGAACAUCUUCGGAUGCAGAGGAGGCAGGCUUCGGUGGCGCGAUAGCGCCAACGUCCUCAACCUCGAAUGCAUCCCACCACAUGAUUAUGCCUGAAGAGCCUUGGUUUUUUG | -2.85
16 | GACCAAUCUGCCCUCAGAGCUCGAGAACAUCUUCGGAUGCAGAGGAGGCAGGCUUCGGUGGCGCGAUAGCGCCAACGUCCUCAACCUCAAAUGCAUCCCACCACAUGAUGAUGCCUGAAGAGCCUUGGUGUUUUG | -1.51
17 | GACCAAUCUGCCCUCAGAGCUCGAGAACAUCUUCGGAUGCAGAGGAGGCAGGCUUCGGUGGCGCGAUAGCGCCAACGUCCUCAACCUCGAAUGCAUCCCACCACAUGAUGCUGCCUGAAGAGCCUUGGUUUUUUG | -2.08
18 | GACCAAUCUGCCCUCAGAGCUCGAGAACAUCUUCGGAUGCAGAGGAGGCAGGCUUCGGUGGCGCGAUAGCGCCAACGUCCUCAACCUCAAAUGCAUCCCACCACAUGAUGAUGCCGGAAGAGGCUUGGUUUUUUG | -3.17
19 | GACCAAUCUGCCCUCAGAGCUCGAGAACAUCUUCGGAUGCAGAGGAGGCAGGCUUCGGUGGCGCGAUAGCGCCAACGUCCUCAACCUCAAAUGCAUCCCACCACAUGAUGUUGCCUGAAGAACCUUGGUUUUUUG | -4.54
20 | GACCAAUCUGCCCUCAGAGCUCGAGAACAUCUUCGGAUGCAGAGGAGGCAGGCUUCGGUGGCGCGAUAGCGCCAACGUCCUCAACCUCUAAUGCAUCCCACCACAUGAUGAUGCCUCAAGAGCCUUGGUUUUUUG | -4.26
21 | GACCAAUCUGCCCUCAGAGCUCGAGAACAUCUUCGGAUGCAGAGGAGGCAGGCUUCGGUGGCGCGAUAGCGCCAACGUCCUCAACCUCCCACGCAUCCCACAACAUGAUGAUGCCUGAACAGCCUUGGUUUAUUG | -4.27

Row | Variant | polymerase ribozyme fitness (log ratio)
22 | GACCAAUCUGCCCUCAGAGCUCGAGAACAUCUUCGGAUGCAGAGGAGGCAGGCUUCGGUGGCGCGAUAGCGCCAACGUCCUCAACCUCUAAUGCAUCCCACCACAUGACGAUGCCUGAAGAGCCUUGGUUUUUUG | -3.31
23 | GACCAAUCUGCCCUCAGAGCUCGAGAACAUCUUCGGAUGCAGAGGAGGCAGGCUUCGGUGGCGCGAUAGCGCCAACGUCCUCAACCUCUAAUGCAUCCCACCACAUGAUGAUGCAUGAAGAGCCUUGGUUUUUUG | 0.206
24 | GACCAAUCUGCCCUCAGAGCUCGAGAACAUCUUCGGAUGCAGAGGAGGCAGGCUUCGGUGGCGCGAUAGCGCCAACGUCCUCAACCUCCCAUGCAUUCCACCACAUGAUGACGACUGAAGAGCCUUGGUUUUUUG | -3.18
25 | GACCAAUCUGCCCUCAGAGCUCGAGAACAUCUUCGGAUGCAGAGGAGGCAGGCUUCGGUGGCGCGAUAGCGCCAACGUCCUCAACCUCGAAUGCAUCCCACCACAUGAUGAUACCUGAAGAGCCUUGGUUUUUUG | -3.42
26 | GACCAAUCUGCCCUCAGAGCUCGAGAACAUCUUCGGAUGCAGAGGAGGCAGGCUUCGGUGGCGCGAUAGCGCCAACGUCCUCAACCUCGAAUGCAUCCCACCACAUGAUGAUUCCUGAAGAGCCUUGGUUUUUUG | -3.93
27 | GACCAAUCUGCCCUCAGAGCUCGAGAACAUCUUCGGAUGCAGAGGAGGCAGGCUUCGGUGGCGCGAUAGCGCCAACGUCCUCAACCUCCCAUGCAUCCCACCACAUGAUGAUGCCUGAAGAGUCUUGGUUUUUUG | 0.206
28 | GACCAAUCUGCCCUCAGAGCUCGAGAACAUCUUCGGAUGCAGAGGAGGCAGGCUUCGGUGGCGCGAUAGCGCCAACGUCCUCAACCUCCCCUGCAUCCCACCACAUGAUAAUGCCUGAAGAGCCUUGGUUUUUUG | -4.36
29 | GACCAAUCUGCCCUCAGAGCUCGAGAACAUCUUCGGAUGCAGAGGAGGCAGGCUUCGGUGGCGCGAUAGCGCCAACGUCCUCAACCUCUAAUGCAUCCCACCACAUGAUGAUGCCUGAAGAGACUUGGUUUUUUG | 0.125
30 | GACCAAUCUGCCCUCAGAGCUCGAGAACAUCUUCGGAUGCAGAGGAGGCAGGCUUCGGUGGCGCGAUAGCGCCAACGUCCUCAACCUCGAAUGCAUCCCACCACAUGAUGAUGCCUGAACAGCCUUGGUUUUUUG | -0.58
31 | GACCAAUCUGCCCUCAGAGCUCGAGAACAUCUUCGGAUGCAGAGGAGGCAGGCUUCGGUGGCGCGAUAGCGCCAACGUCCUCAACCUCAAAUGCAUCCCACCACAUGAUGGUGCCUGAAGAGCCUUGGUUUUUUG | -1.35
32 | GACCAAUCUGCCCUCAGAGCUCGAGAACAUCUUCGGAUGCAGAGGAGGCAGGCUUCGGUGGCGCGAUAGCGCCAACGUCCUCAACCUCAAAUGCAUCCCACCACAUGAUGCUGCCUGAAGAGCCUUGGUUUUUUG | -2.88
33 | GACCAAUCUGCCCUCAGAGCUCGAGAACAUCUUCGGAUGCAGAGGAGGCAGGCUUCGGUGGCGCGAUAGCGCCAACGUCCUCAACCUCAAAUGCAUCCCACCACAUGAUGAUGCCUGAAGAGCUUUGGUUUUUUG | 0.618
34 | GACCAAUCUGCCCUCAGAGCUCGAGAACAUCUUCGGAUGCAGAGGAGGCAGGCUUCGGUGGCGCGAUAGCGCCAACGUCCUCAACCUCCCAUGCAUCCCUCCACAUGAUGGUGCCUGAAGAGCCUUGGUUUUUUG | -1.79
35 | GACCAAUCUGCCCUCAGAGCUCGAGAACAUCUUCGGAUGCAGAGGAGGCAGGCUUCGGUGGCGCGAUAGCGCCAACGUCCUCAACCUCAAAUGAAUCCCACCACAUGAUGAUGCUUGAAGAGCCUUGGUAUUUUG | -3.36
36 | GACCAAUCUGCCCUCAGAGCUCGAGAACAUCUUCGGAUGCAGAGGAGGCAGGCUUCGGUGGCGCGAUAGCGCCAACGUCCUCAACCUCAAAUGCAUCCCACCACCUGAUGAUGCCUGAAGAGCCUUGGUUUUUUG | -4.64
37 | GACCAAUCUGCCCUCAGAGCUCGAGAACAUCUUCGGAUGCAGAGGAGGCAGGCUUCGGUGGCGCGAUAGCGCCAACGUCCUCAACCUCGAAUGCAUCCCACCAAAUGAUGAUGCCUGAAGAGCCUUGGUUUUUUG | -3.34
38 | GACCAAUCUGCCCUCAGAGCUCGAGAACAUCUUCGGAUGCAGAGGAGGCAGGCUUCGGUGGCGCGAUAGCGCCAACGUCCUCAACCUCUAAUGCAUCCCACCACAUGAUGAUGCCUGAAGAACCUUGGUUUUUUG | -0.697
39 | GACCAAUCUGCCCUCAGAGCUCGAGAACAUCUUCGGAUGCAGAGGAGGCAGGCUUCGGUGGCGCGAUAGCGCCAACGUCCUCAACCUCUAAUGCAUCCCACCACAUGAUGAUGCCUGAAGAUCCUUGGUUUUUUG | -0.616
40 | GACCAAUCUGCCCUCAGAGCUCGAGAACAUCUUCGGAUGCAGAGGAGGCAGGCUUCGGUGGCGCGAUAGCGCCAACGUCCUCAACCUCAAAUGCAUCCCACCACAUGAUGAUGCCUGAAGAGUCUUGGUUUUUUG | -0.0853
41 | GACCAAUCUGCCCUCAGAGCUCGAGAACAUCUUCGGAUGCAGAGGAGGCAGGCUUCGGUGGCGCGAUAGCGCCAACGUCCUCAACCUCUAAUGCAUCCCACCACAUGAUGAUGCCUGAACAGCCUUGGUUUUUUG | 0.737
42 | GACCAAUCUGCCCUCAGAGCUCGAGAACAUCUUCGGAUGCAGAGGAGGCAGGCUUCGGUGGCGCGAUAGCGCCAACGUCCUCAACCUCUAAUGCAUCCCACCACAUGGUGAUGCCUGAGGAGCCUUGGUUGCUUG | -1.34
